Laboratory results: patent publication US20250388646A1

Legend:
Test in all cases: cell-based or functional assay
FAS-(41BB) construct = FAS-(41BB) construct (UniProt Q07011)
[1] = target: FAS-(CD27) Fas redirector
[2] = target: FAS-(MyD88-CD40) Fas redirector
[3] = target: dominant negative Fas receptor (dnFAS)

Measured: percentage of viable cells after 24 hours of exposure to CH11

FAS-(CD27) Fas redirector, sequence (chain, as listed by the source): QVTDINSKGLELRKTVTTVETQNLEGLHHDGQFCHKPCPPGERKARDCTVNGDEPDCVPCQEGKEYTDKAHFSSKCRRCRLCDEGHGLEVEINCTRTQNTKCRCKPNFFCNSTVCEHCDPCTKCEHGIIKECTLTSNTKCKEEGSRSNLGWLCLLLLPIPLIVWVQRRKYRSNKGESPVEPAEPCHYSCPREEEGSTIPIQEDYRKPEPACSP
FAS-(MyD88-CD40) Fas redirector, sequence (chain, as listed by the source): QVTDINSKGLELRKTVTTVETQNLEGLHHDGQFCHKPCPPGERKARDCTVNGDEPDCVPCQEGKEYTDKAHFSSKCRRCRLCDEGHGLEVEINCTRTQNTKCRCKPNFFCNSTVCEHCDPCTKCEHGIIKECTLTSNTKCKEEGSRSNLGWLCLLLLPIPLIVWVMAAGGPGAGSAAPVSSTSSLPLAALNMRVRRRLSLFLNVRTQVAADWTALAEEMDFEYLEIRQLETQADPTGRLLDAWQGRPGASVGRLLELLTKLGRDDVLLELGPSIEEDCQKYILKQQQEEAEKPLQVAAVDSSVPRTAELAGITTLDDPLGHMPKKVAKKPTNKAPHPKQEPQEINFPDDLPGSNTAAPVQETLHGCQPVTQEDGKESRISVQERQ
UniProt Q07011, sequence (Q07011 other isoform, or with tags, fused parts or gaps): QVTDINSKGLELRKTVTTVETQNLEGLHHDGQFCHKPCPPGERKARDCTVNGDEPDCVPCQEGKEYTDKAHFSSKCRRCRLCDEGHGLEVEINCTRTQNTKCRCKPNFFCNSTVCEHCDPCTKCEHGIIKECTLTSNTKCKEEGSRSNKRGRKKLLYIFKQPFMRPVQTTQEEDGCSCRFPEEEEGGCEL

CH11 (Sigma-Aldrich), a Fas agonist (antibody)
> 60%: all assays above
